Assays:
Test in all cases: purified protein
Format in all cases: biochemical, Paenibacillus alvei
[1] = system: T1, CC(=O)N[C@H]1[C@@H](OP(=O)(O)OP(=O)(O)OC[C@H]2O[C@@H](n3ccc(=O)[nH]c3=O)[C@H](O)[C@@H]2O)O[C@H](CO)[C@@H](O)[C@@H]1O; conditions: forward reaction, 10 mM sodium phosphate pH 8.0, 50 mM MgCl2, 30 °C, apparent constant
T1 construct: amino acids 1-384, Leu-Glu linker and C-terminal His6 tag, pET22b(+), E. coli BL21(DE3), Ni-NTA

[2] = substrate: CC(=O)N[C@H]1[C@@H](OP(=O)(O)OP(=O)(O)OC[C@H]2O[C@@H](n3ccc(=O)[nH]c3=O)[C@H](O)[C@@H]2O)O[C@H](CO)[C@@H](O)[C@@H]1O; conditions: forward reaction, 10 mM sodium phosphate pH 8.0, 50 mM MgCl2, 30 °C, 5 min, apparent constant
[3] = substrate: CC(=O)N[C@@H]1[C@@H](OP(=O)(O)OP(=O)(O)OC[C@H]2O[C@@H](n3ccc(=O)[nH]c3=O)[C@H](O)[C@@H]2O)O[C@H](CO)[C@@H](O)[C@@H]1O; conditions: reverse reaction, 10 mM sodium phosphate pH 8.0, 50 mM MgCl2, 30 °C, 45 min, apparent constant
[4] = kcat 0.05 in text fits printed kcat/Km 0.03, table prints 0.53

PaMnaA (MnaA.His6) (Paenibacillus alvei; H241A)
Km [1]: 3.27 mM
kcat [1]: 0.53 s⁻¹
kcat/Km [1]: 160 M⁻¹ s⁻¹

PaMnaA (MnaA.His6) (Paenibacillus alvei; Q42A)
Km [1, 4]: 1.61 mM
kcat [1, 4]: 0.05 s⁻¹
kcat/Km [1, 4]: 30 M⁻¹ s⁻¹

PaMnaA (MnaA.His6) (Paenibacillus alvei; Q69A)
Km [1]: 8.92 mM
kcat [1]: 37.9 s⁻¹
kcat/Km [1]: 4250 M⁻¹ s⁻¹

B1: PaMnaA (MnaA.His6) (Paenibacillus alvei) (protein)
chain: MSKVKVMTVFGVRPEAIKMAPLILELQKHPEHIESIVCVTAQHRQMLDQVLDVFNIKPDYDLDIMQARQTLNDISVRVLQGLEPVLQEAKPDIVLVHGDTLTTFLASYAAFMQQIKVGHVEAGLRTWNKLSPFPEEMNRQLTGVLADLHFAPTDWSASNLRKENKQDASIFVTGNTVTDVFQYTVRSDYKHEVLDWAQGKRLVLMTAHRRESQGEPHRNIFRAVRRIADEFEDIAIVYPVHPSPAVREPAHEMLGDHPRIKLIDPLDVVDLHNFYPHTHLILTDSGGLQEEAPSFGIPVLVLRETTERPEGIDAGTLELVGTDEEKVYARAKALLSDETTYARMSKAANPYGDGKASQRIVSAILHSFGVLEERPEPFHTKFTN
notes: amino acids 1-384, Leu-Glu linker and C-terminal His6 tag, pET22b(+), E. coli BL21(DE3), Ni-NTA
Km [2]: 3.91 mM
kcat [2]: 33.4 s⁻¹
kcat/Km [2]: 8560 M⁻¹ s⁻¹
Km [3]: 2.41 mM
kcat [3]: 6.02 s⁻¹

Source: paper PMC11464976, “Insights into structure and activity of a UDP-GlcNAc 2-epimerase involved in secondary cell wall polymer biosynthesis in Paenibacillus alvei” (Frontiers in Molecular Biosciences, 2024)
